This passage reports Qb10% (dynamic binding capacity, Average of Qb10% and Qb10% (average of runs) results from patent publication US20260258092A1.

Assay [1] deals with Trastuzumab. As to the kind of experiment: frontal analysis on a membrane disc, load at 10 mL/min, run 1.
For assay [2], the target named is Trastuzumab. Briefly: frontal analysis on a membrane disc, blank run between runs, run 2.
In assay [3] the target is dAb, a domain antibody comprising the variable light chain. Briefly: frontal analysis on a membrane disc, run 2.
The target is the same in assay [4]. Briefly: frontal analysis on a membrane disc, run 1, average of Test 1 and Test 2.
Assay [5] concerns the target Trastuzumab. Briefly: frontal analysis on a membrane disc, load at 10 mL/min, average of runs 1-4.
Assay [6] has as its target Trastuzumab. Briefly: frontal analysis on a membrane disc, blank run between runs, run 1.
Assay [7] has as its target dAb, a domain antibody comprising the variable light chain. Briefly: frontal analysis on a membrane disc, run 2, average of Test 1 and Test 2.
Assay [8] has as its target Trastuzumab. As to the kind of experiment: frontal analysis on a membrane disc, load at 10 mL/min, run 3.
The target of assay [9] is dAb, a domain antibody comprising the variable light chain. As to the kind of experiment: frontal analysis on a membrane disc, run 1.
The target in assay [10] is Trastuzumab. As to the kind of experiment: frontal analysis on a membrane disc, load at 10 mL/min, run 4 (no blank run before).
The target of assay [11] is Trastuzumab. As to the kind of experiment: frontal analysis on a membrane disc, blank run between runs, average.
Assay [12] addresses dAb, a domain antibody comprising the variable light chain. As to the kind of experiment: frontal analysis on a membrane disc, re-run after CIP with 0.1 M NaOH, average. The conditions noted are these: test 1, without preceding CIP wash.
The target of assay [13] is Trastuzumab. As to the kind of experiment: frontal analysis on a membrane disc, load at 10 mL/min, run 2 (no blank run before).

Values joined by “and” are separate entries in the source; they are usually repeats but may differ in a detail not shown here. Equal values may be shown once.

Turning to “kappa light chain-binding ligand (multimer of alkali-stabilized Finegoldia magna Protein L domains) covalently coupled to a convection-based fibrous support (prototype separation matrix) (designed binder)”, the Qb10% (dynamic binding capacity at 10% breakthrough) was 17.3 mg/mL and 22 mg/mL with Trastuzumab [1]; 15.5 mg/mL and 21.4 mg/mL in the assay with Trastuzumab [2]; 9.41 mg/mL and 10.5 mg/mL in assay [3]; 15.4 mg/mL and 21.4 mg/mL with Trastuzumab [6]; 15.9 mg/mL and 21.8 mg/mL with Trastuzumab [8]; 12.8 mg/mL and 13 mg/mL in assay [9]. Further, the Qb10% (dynamic binding capacity at 10% breakthrough) is 10.8 mg/mL and 16.8 mg/mL in the assay with Trastuzumab [10]; 12.3 mg/mL and 17.8 mg/mL with Trastuzumab [13]. Besides, the figures for the Average of Qb10% in assay [4] and in [7] were 12.9 mg/mL and 9.98 mg/mL, respectively. In addition, the Qb10% (average of runs) was 19.6 mg/mL and 14.1 mg/mL with Trastuzumab [5]; 15.4 mg/mL and 21.4 mg/mL in the assay with Trastuzumab [11]; 10.2 mg/mL in assay [12].
